# In publication PMC4022432, “Complete steady-state rate equation for DNA ligase and its use for measuring product kinetic parameters of NAD^+-dependent DNA ligase from Haemophilus influenzae” (BMC Research Notes, 2014):
# B1: NAD^+-dependent DNA ligase from Haemophilus influenzae (Haemophilus influenzae Rd KW20) (protein)
# chain: MTNIQTQLDNLRKTLRQYEYEYHVLDNPSVPDSEYDRLFHQLKALELEHPEFLTSDSPTQRVGAKPLSGFSQIRHEIPMLSLDNAFSDAEFNAFVKRIEDRLILLPKPLTFCCEPKLDGLAVSILYVNGELTQAATRGDGTTGEDITANIRTIRNVPLQLLTDNPPARLEVRGEVFMPHAGFERLNKYALEHNEKTFANPRNAAAGSLRQLDPNITSKRPLVLNAYGIGIAEGVDLPTTHYARLQWLKSIGIPVNPEIRLCNGADEVLGFYRDIQNKRSSLGYDIDGTVLKINDIALQNELGFISKAPRWAIAYKFPAQEELTLLNDVEFQVGRTGAITPVAKLEPVFVAGVTVSNATLHNGDEIERLNIAIGDTVVIRRAGDVIPQIIGVLHERRPDNAKPIIFPTNCPVCDSQIIRIEGEAVARCTGGLFCAAQRKEALKHFVSRKAMDIDGVGGKLIEQLVDRELIHTPADLFKLDLTTLTRLERMGAKSAENALNSLENAKSTTLARFIFALGIREVGEATALNLANHFKTLDALKDANLEELQQVPDVGEVVANRIFIFWREAHNVAVVEDLIAQGVHWETVEVKEASENLFKDKTVVLTGTLTQMGRNEAKALLQQLGAKVSGSVSSKTDFVIAGDAAGSKLAKAQELNITVLTEEEFLAQITR
# Substrate: NC(=O)c1ccc[n+]([C@@H]2O[C@H](COP(=O)(O)OP(=O)(O)OC[C@H]3O[C@@H](n4cnc5c(N)ncnc54)[C@H](O)[C@@H]3O)[C@@H](O)[C@H]2O)c1
# Test: purified protein
# Conditions: co-substrate nicked DNA 10-80 nM; room temperature; value from NMN study
# Description: FRET nick-ligation assay, global nonlinear least-squares fit of NMN product inhibition on NAD^+-dependent DNA ligase from Haemophilus influenzae
protein,measurement,value
B1,Km,650 ± 80 nM
